The record followed here is publication PMC6637204, “Inactivating mutations and X-ray crystal structure of the tumor suppressor OPCML reveal cancer-associated functions” (Nature Communications, 2019).

Usually stoichiometry N stands for the number of molecules, sites or subunits per partner or assembly.

Changes are numbered by the printed parent chain. Names and notes keep the numbering of the source.

Data set [1] concerns the molecule itself. Description: SAXS; WT OPCML in 50 mM HEPES pH 7.5, 200 mM sodium chloride, 2% glycerol, 0.02% sodium azide; three concentrations merged; fit to dimer and monomer models.
Data set [2] concerns the molecule itself. Description: SEC-MALLS; samples at 1 µg/µL, 1 mL/min in PBS pH 7.4, room temperature.
Data set [3] concerns the molecule itself. Kind of data set: SEC; gel filtration; dilutions equilibrated 24 h, 50 µL on Superdex 200 10/30 GL at 0.5 mL/min; peak elution volume against concentration fit to a monomer-dimer equilibrium (dimer to monomers). A general note: SEC sorts molecules by how far they enter the pores of the column.
Data set [4] concerns the molecule itself. Kind of data set: SDS-PAGE without heat denaturation, western blot; extracts of transduced cells run without prior heat denaturation, anti-OPCML blot. (In general: Immunoblotting shows a protein as a band on a membrane.)
Data set [5] can be described thus: immunofluorescence confocal microscopy. Particulars: glycan lost; control: wild type.
The nature of data set [6]: western blot, transduced SKOV3, PEA1, PEO1. Particulars: glycan lost; control: wild type.
Data set [7] in a line: MTS viability, R428 IC50, SKOV3. Particulars: glycan lost; control: wild type.
Another data set is described as follows: gel filtration. To be noted: glycan lost; control: wild type.
A short description of data set [8]: SYPRO Orange thermal shift assay. To be noted: glycan lost; control: wild type.
Data set [9] is described as follows: recombinant secretion from insect cells. To be noted: glycan lost; control: wild type.
The nature of data set [10]: Caspase-Glo 3/7 assay, SKOV3. Particulars: glycan lost; control: wild type.

B1: soluble recombinant wild-type OPCML (residues 36-316, D1-D3) (domain or fragment, human, UniProt Q14982 36-316, looked up)
chain: ATFPKAMDNVTVRQGESATLRCTIDDRVTRVAWLNRSTILYAGNDKWSIDPRVIILVNTPTQYSIMIQNVDVYDEGPYTCSVQTDNHPKTSRVHLIVQVPPQIMNISSDITVNEGSSVTLLCLAIGRPEPTVTWRHLSVKEGQGFVSEDEYLEISDIKRDQSGEYECSALNDVAAPDVRKVKITVNYPPYISKAKNTGVSVGQKGILSCEASAVPMAEFQWFKEETRLATGLDGMRIENKGRMSTLTFFNVSEKDYGNYTCVATNKLGNTNASITLYGPGA
modifications: N-linked glycans modelled at asparagines 70, 293 and 306
notes: OPCML, human, UniProt Q14982, residues 36-316 (D1-D3); also called WT OPCML; rOPCML; source: Hi5 insect cells, baculovirus, secreted; purified (protein A, thrombin digestion, negative protein A, HiTrap Q, SEC); not shown: Fc (human IgG1, UniProt P01857 residues 118-330, joined by ALVPRGS), C-terminal, cleaved
Take B1: in data set [1], the “stoichiometry N” value was determined as 2.

B2: soluble recombinant OPCML P95R (residues 36-316) (domain or fragment, human, UniProt Q14982 36-316, looked up)
chain: B1 chain with P60R
notes: OPCML, human, UniProt Q14982, residues 36-316 (D1-D3), clinical somatic mutation P95R; Same construct as m1 with P95R; PDB 5UV6 is the wild-type parent; ALVPR probably left at the C-terminus after thrombin (surmised); also called rP95R; source: Hi5 insect cells, baculovirus, secreted; purified (protein A, thrombin digestion, negative protein A, HiTrap Q, SEC); not shown: Fc (human IgG1, UniProt …)
In the case of B2, in [2], the “stoichiometry N” value was 2.

B3: soluble recombinant OPCML R65L (residues 36-316) (domain or fragment, human, UniProt Q14982 36-316, looked up)
chain: B1 chain with R30L
notes: OPCML, human, UniProt Q14982, residues 36-316 (D1-D3), clinical somatic mutation R65L; Same construct as m1 with R65L; PDB 5UV6 is the wild-type parent; ALVPR probably left at the C-terminus after thrombin (surmised); also called rR65L; source: Hi5 insect cells, baculovirus, secreted; purified (protein A, thrombin digestion, negative protein A, HiTrap Q, SEC); not shown: Fc (human IgG1, UniProt …)
Regarding B3, the “fold weaker Kd than WT OPCML” value in [3] is ≥ 250 fold.

B4: wild-type OPCML expressed in transduced cancer cells (natural protein, human, UniProt Q14982 28-322, looked up)
chain: GVPVRSGDATFPKAMDNVTVRQGESATLRCTIDDRVTRVAWLNRSTILYAGNDKWSIDPRVIILVNTPTQYSIMIQNVDVYDEGPYTCSVQTDNHPKTSRVHLIVQVPPQIMNISSDITVNEGSSVTLLCLAIGRPEPTVTWRHLSVKEGQGFVSEDEYLEISDIKRDQSGEYECSALNDVAAPDVRKVKITVNYPPYISKAKNTGVSVGQKGILSCEASAVPMAEFQWFKEETRLATGLDGMRIENKGRMSTLTFFNVSEKDYGNYTCVATNKLGNTNASITLYGPGAVIDGVN
notes: OPCML, human, WT cDNA from pENTR4 shuttled to pLenti CMV Puro DEST; GPI-anchored, membrane-localized; also called WT OPCML; WT; source: SKOV3, PEA1, PEO1 and HCT116 cells, stably transduced (lentivirus, pLenti CMV Puro DEST); on cells or in lysate
As for B4, the “stoichiometry N” value in data set [4] came to 2.

B5: OPCML: N70H (protein)
parent chain: MGVCGYLFLPWKCLVVVSLRLLFLVPTGVPVRSGDATFPKAMDNVTVRQGESATLRCTIDDRVTRVAWLNRSTILYAGNDKWSIDPRVIILVNTPTQYSIMIQNVDVYDEGPYTCSVQTDNHPKTSRVHLIVQVPPQIMNISSDITVNEGSSVTLLCLAIGRPEPTVTWRHLSVKEGQGFVSEDEYLEISDIKRDQSGEYECSALNDVAAPDVRKVKITVNYPPYISKAKNTGVSVGQKGILSCEASAVPMAEFQWFKEETRLATGLDGMRIENKGRMSTLTFFNVSEKDYGNYTCVATNKLGNTNASITLYGPGAVIDGVNSASRALACLWLSGTLLAHFFIKF
For the protein B5, the localisation_or_trafficking result in [5] was “no change”. The expression_or_secretion result in data set [6] is listed as “no change”; in [9] it was “decreases”. Moreover, in [7], the “other: sensitisation to AXL inhibitor” value is “abolishes”. Besides, the “other: aggregation” value in the data set “gel filtration” was “increases”. In addition, in [8], the “stability_or_folding, Tm” value was “decreases”. Also, the “other: R428-induced apoptosis” value in [10] is on record as “abolishes”.
